According to paper PMC10073072:

T1: SLC39A5^369–380 peptide, Q6ZMH5
T1 chain: GHQGHSHGHQGGY


Key:
METTL9^M6 R214A (human) = METTL9^M6 R214A (human) (UniProt Q9H1A3); experiment: ITC; METTL9 protein and synthetic peptide; conditions and who was titrated not shown
[1] = target: T1, SLC39A5^369–380 peptide, Q6ZMH5; experiment: ITC; details: chain shown with the change;; parent: 9.0 µM

| fold weaker binding affinity than METTL9^M6 (METTL9^M6 R214A (human)) | Kd [1] | Binder |
| --- | --- | --- |
| 5 fold |  | GHQGHSHGHQGGY [SLC39A5^369–380 peptide] |
|  | 51 µM | METTL9^M6 (METTL9^46–318 with six mutations), Q9H1A3 R214A (protein) HMAAGGRKENHQWYVCNREKLCESLQAVFVQSYLDQGTQIFLNNSIEKSGWAAIQAYHSAVSSAFSLAMSRTSINGLLGRGSMFVFSPDQFQRLLKINPDWKTHRLLDLGAGDGEVTKIMSPHFEEIYATELSETMIWQLQKKKYRVLGINEWQNTGFQYDVISCLNLLDACDQPLTLLKDIRSVLEPTRGRVILALVLPFHPYVENVGGKWEKPSEILEIKGQNWEEQVNSLPEVFRKAGFVIEAFTRLPYLCEGDMYNDYYVLDDAVFVLKPV |
